We go through two molecules from patent US20130336924A1 (ALKERMES, published 2013).

Test [1] deals with T1, IL-6Rα on HEK-Blue IL-6 cells (human, UniProt P08887 20-468).
T1 sequence (looked up): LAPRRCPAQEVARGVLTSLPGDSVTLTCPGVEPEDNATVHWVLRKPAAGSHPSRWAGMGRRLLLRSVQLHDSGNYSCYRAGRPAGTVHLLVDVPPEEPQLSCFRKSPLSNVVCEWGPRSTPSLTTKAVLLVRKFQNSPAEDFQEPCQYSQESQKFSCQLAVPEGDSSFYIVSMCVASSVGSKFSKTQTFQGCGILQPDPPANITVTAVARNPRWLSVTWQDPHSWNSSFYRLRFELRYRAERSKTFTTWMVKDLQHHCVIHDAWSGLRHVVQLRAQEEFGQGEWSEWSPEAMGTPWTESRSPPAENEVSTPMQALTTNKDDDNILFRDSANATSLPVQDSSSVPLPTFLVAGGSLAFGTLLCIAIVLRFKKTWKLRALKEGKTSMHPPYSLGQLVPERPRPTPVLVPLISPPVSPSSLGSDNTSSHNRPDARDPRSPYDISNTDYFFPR
Nature of the test: cell-based or functional assay.

Test [2] concerns the target T2, gp130 on HEK-Blue IL-6 cells (human, UniProt P40189 23-918).
T2 sequence: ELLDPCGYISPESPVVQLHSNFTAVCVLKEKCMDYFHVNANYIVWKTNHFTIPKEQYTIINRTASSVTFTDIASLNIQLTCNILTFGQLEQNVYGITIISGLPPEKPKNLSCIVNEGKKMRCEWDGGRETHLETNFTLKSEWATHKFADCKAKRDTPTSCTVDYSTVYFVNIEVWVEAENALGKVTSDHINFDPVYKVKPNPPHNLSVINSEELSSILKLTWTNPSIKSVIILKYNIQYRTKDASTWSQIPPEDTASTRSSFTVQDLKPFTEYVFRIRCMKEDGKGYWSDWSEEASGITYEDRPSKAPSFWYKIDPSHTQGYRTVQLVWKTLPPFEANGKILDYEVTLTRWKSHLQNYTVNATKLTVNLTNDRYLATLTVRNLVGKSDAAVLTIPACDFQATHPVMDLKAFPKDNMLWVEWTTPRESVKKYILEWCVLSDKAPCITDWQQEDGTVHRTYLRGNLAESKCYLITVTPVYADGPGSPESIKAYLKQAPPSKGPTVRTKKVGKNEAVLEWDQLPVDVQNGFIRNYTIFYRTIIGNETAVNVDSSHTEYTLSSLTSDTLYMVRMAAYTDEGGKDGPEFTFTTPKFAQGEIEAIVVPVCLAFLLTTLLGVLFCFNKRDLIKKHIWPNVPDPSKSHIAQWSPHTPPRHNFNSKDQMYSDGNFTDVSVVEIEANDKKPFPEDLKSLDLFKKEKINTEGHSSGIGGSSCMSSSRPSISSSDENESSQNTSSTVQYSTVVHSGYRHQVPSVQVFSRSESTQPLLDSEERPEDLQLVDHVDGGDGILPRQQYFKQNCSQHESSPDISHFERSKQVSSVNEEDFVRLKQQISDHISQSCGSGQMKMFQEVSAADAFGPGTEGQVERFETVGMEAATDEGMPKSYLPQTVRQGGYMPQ
Nature of the test: cell-based or functional assay.

For the molecule “IL-6 (from UniProt P05231 30-212) (ligand)”, in test [1], the EC50, IL-6-induced SEAP reporter in HEK-Blue IL-6 cells (agonist activity) turned out to be 1 pM.

B1: RDB1503 (ligand)
chain: QNQWLQDMTTHLILRSFKEFLQSSLRALRQMSGGSGGGSSERIDKQIRYILDGISALRKETCNKSNMCESSKEALAENNLNLPKMAEKDGCFQSGFNEETCLVKIITGLLEFEVYLEYLQNRFESSEEQARAVQMSTKVLIQFLQKKAKNLDAITTPDPTTNASLLTKLQ
Regarding B1, the “EC50, IL-6-induced SEAP reporter in HEK-Blue IL-6 cells (agonist activity)” value in test [1] and in test [2] was around 0.6 pM each time.
